Data set [1] in a line: 5-hydroxy-L-pipecolic acid-producing activity of McPH mutants (Example 6). In kind it is biochemical. The conditions noted are these: for Relative activity (5-hydroxy-L-pipecolic acid-producing activity, wild type = 100): Table 10, double and triple mutants. An excerpt: Each of the obtained plasmids was used to transform E. coli (Eschelichia coli) BL21 (DE3) (manufactured by Invitrogen) according to a conventional method and thus to obtain recombinant E. coli strains expressing the respective mutants.
Furthermore, the combination effect of the respective mutations was examined in the mutations corresponding to McPHm2, McPHm3, and McPHm9, each of which was effective to improve the activity. A plasmid expressing a double mutant (McPHm10) with substitutions of phenylalanine to tyrosine at position 5 and cysteine to alanine at position 23, and a plasmid expressing a triple mutant, which is derived from the double mutant and further has a substitution of aspartic acid to glutamic acid at position 282, were constructed. Then, recombinant E. coli strains were produced according to the method described above, and the resulting enzyme solutions were used to evaluate the 5-hydroxy-L-pipecolic acid-producing activity.

A short description of data set [2]: Catalytic efficiency (kcat/Km) of L-pipecolic acid hydroxylases with L-proline (Example 3). In kind it is biochemical. The conditions noted are these: for hydroxy-L-proline detected from the reaction solution: L-proline as substrate, Example 3, in words. The procedure: Each of the obtained recombinant E. coli strains in a volume of 0.6 mL was recovered by centrifugation and was suspended in 0.5 mL of 50 mmol/L MES (2-morpholinoethanesulfonic acid) buffer at pH 6. The container containing the suspension was placed in ice-water bath to perform sonication and then spun at 12,000 rpm. The obtained supernatant was used as an enzyme solution in Example 3.
Subsequently, 0.05 mL of 1 mol/L hydrochloric acid was added to stop the reaction.
The reaction using L-proline as a substrate was carried out under the same conditions as in the above reaction using L-pipecolic acid.
Then, each reaction solution was treated using 1-fluoro-2,4-dinitrophenyl-5-L-alaninamide (FDAA) (manufactured by Tokyo Chemical Industry Co., Ltd.) according to a method as described below, to obtain a FDAA-derivative of a hydroxy-L-pipecolic acid or hydroxy-L-proline included in each reaction solution.
To the reaction solution after stopping the reaction, 0.05 mL of 1 mol/L sodium hydroxide was added for neutralization. After centrifuging the solution at 12,000 rpm, 15 μL of 0.5 mol/L borate buffer (pH 9) was added to 15 μL of the obtained supernatant, followed by further addition of 30 μL of 20 mmol/L FDAA solution in acetone and incubation at 40° C. for one hour. Subsequently, 10 μL of 1 mol/L hydrochloric acid was added to stop the derivatization reaction. The resulting solution was diluted by adding 80 μL of methanol, and then centrifuged at 12,000 rpm. The obtained supernatant was used as a FDAA derivative solution.
The amount of produced hydroxy-L-pipecolic acid or hydroxy-L-proline was analyzed with UPLC-MS (manufactured by Waters Co.).
An aliquot containing 5 μg of total protein was taken from each enzyme solution obtained in Example 2, loaded on each lane, and then electrophoresed on polyacrylamide gel. The obtained electrophoretogram was analyzed using the image analysis software Image Lab3.0 (manufactured by Bio-Rad Laboratories, Inc.) to determine the content of each hydroxylase. A carbonic anhydrase (manufactured by Sigma-Aldrich Co. LLC) was used as a quantification reference. The content of a hydroxylase of interest was calculated from the signal intensity of the enzyme of interest, based on the signal intensities of bands corresponding to 200 ng, 400 ng and 600 ng of the quantification reference provided for the electrophoresis.
The catalytic efficiency of each enzyme was calculated based on the Michaelis-Menten kinetic equation.
It is known that, in FIG. 1, the reciprocal of each intercept with the x-axis, multiplied with −1, represents a km value (mmol/L) and the reciprocal of each intercept with the y-axis represents a Vmax value (U/mg), the maximum rate of reaction.
The catalytic ability per molecule of the enzyme (kcat) can be calculated from the Vmax and the molecular weight of the enzyme. Table 5 indicates the result of the calculation of catalytic efficiency (kcat/km), which is an index representing the catalytic ability of an enzyme, based on the obtained kcat and km values.

A short description of data set [3]: Reactivity comparison of L-pipecolic acid 5-hydroxylases, substrate L-proline (Example 4). The conditions noted are these: for Relative activity, Substrate: L-proline (hydroxy-L-proline-producing activity, 100 = hydroxy-L-pipecolic acid-producing activity): 10 mmol/L substrate, 30° C., 30 minutes; for hydroxy-L-proline detected from the reaction solution: Example 4, 10 mmol/L L-proline, in words.
Procedure: (§1) The detection of the products was based on the absorbance at a wavelength of 340 nm.
(§2) The activity values were evaluated by the amount of a product per gram of total protein (U/g-protein).

The nature of data set [4]: Reactivity comparison of L-pipecolic acid 5-hydroxylases, substrate L-pipecolic acid (Example 4). As to conditions: 10 mmol/L substrate, 30° C., 30 minutes; hydroxy-L-pipecolic acid-producing activity set to 100.
Procedure: as §1, §2
A short description of data set [5]: Production of hydroxy-L-pipecolic acids by culture of recombinant E. coli expressing the hydroxylase (Example 5). In kind it is cell-based, E. coli BL21 (DE3). As to conditions: for Accumulation of (4S)-hydroxy-L-proline: 120 hours; for Accumulation amount of (4S)-hydroxy-L-proline / Accumulation amount of (5S)-Hydroxy-L-pipecolic acid / Accumulation amount of L-pipecolic acid: after 120 hours, 20 mmol/L L-pipecolic acid in medium, 30° C.

Data set [6] in a line: Hydroxylation activity of McPH mutants with L-proline as substrate (Example 6). In kind it is biochemical. As to conditions: method of Example 4, in words.
The nature of data set [7]: Catalytic efficiency (kcat/Km) of L-pipecolic acid hydroxylases with L-pipecolic acid (Example 3). In kind it is biochemical. The conditions noted are these: in words.

B1: McPH: amino acid hydroxylase from Micromonospora chokoriensis, GenBank WP_030487089, SEQ ID NO: 2 (protein, listed as Micromonospora chokoriensis)
chain: MRTHFVGEVALDLARLEADLATCRSLEWSEAYSDYVFGGSWKSCMLWAPGGDAGDGVVTDYAYDRSAGFTPHAERLPYLAELIRETADLDRLNFARLALVTNSVIIPHRDLLELSDLPDEARNEHRMHIPLATNDNCFFNEDNVVYRMRRGEVWFLDASRIHSVAVLTAQPRIHLMLDFVDTPGAGSFTRVAGGGVEAGIPVDRIVTRPPLGDDERADLFGVAPLLSMDTFDEVFSIVIKKHFRRDGGSDFVWDTMLELAAKSPDPAVLPHTEELRKHYTLDRSA
Take B1: the “Relative activity (5-hydroxy-L-pipecolic acid-producing activity, wild-type McPH = 100%)” value in data set [1] (Table 9, single mutants, U/g-protein basis, method of Example 4) is recorded as 100%. Also, the “Relative activity (5-hydroxy-L-pipecolic acid-producing activity, wild type = 100)” value in data set [1] stood at 100. The “hydroxy-L-proline detected from the reaction solution” value (“hydroxy-L-proline detected” below) in data set [2] is recorded as “no hydroxy-L-proline was detected”. Also, in data set [2] (in words), the “Activity, Substrate: L-proline (cell spanning Km to kcat/Km)” value is listed as “(No activity )”. Also, in data set [3], the “Relative activity, Substrate: L-proline (hydroxy-L-proline-producing activity, 100 = hydroxy-L-pipecolic acid-producing activity)” value stood at 0% and the “hydroxy-L-proline detected” value was “No hydroxy-L-proline was detected”. Further, in data set [4], the “Relative activity, Substrate: L-pipecolic acid” value was 100%. Besides, the “Accumulation of (4S)-hydroxy-L-proline” value in data set [5] (in words) is “No accumulation of (4S)-hydroxy-L-proline was confirmed”. Also, in data set [5], the “Accumulation amount of (4S)-hydroxy-L-proline” value is 0 mmol/L, the “Accumulation amount of (5S)-Hydroxy-L-pipecolic acid” value is on record as 23.5 mmol/L and the “Accumulation amount of L-pipecolic acid” value is 1.8 mmol/L. Besides, in data set [5] (incubation for 120 hours, in words), the “Conversion of the substrate to (5S)-hydroxy-L-pipecolic acid” value was “almost the entire amount of the substrate was allowed to convert to (5S)-hydroxy-L-pipecolic acid”.

B2: McPHm11: McPH triple mutant F5Y, C23A, D282E; SEQ ID NO: 20 (protein, listed as Micromonospora chokoriensis)
chain: MRTHYVGEVALDLARLEADLATARSLEWSEAYSDYVFGGSWKSCMLWAPGGDAGDGVVTDYAYDRSAGFTPHAERLPYLAELIRETADLDRLNFARLALVTNSVIIPHRDLLELSDLPDEARNEHRMHIPLATNDNCFFNEDNVVYRMRRGEVWFLDASRIHSVAVLTAQPRIHLMLDFVDTPGAGSFTRVAGGGVEAGIPVDRIVTRPPLGDDERADLFGVAPLLSMDTFDEVFSIVIKKHFRRDGGSDFVWDTMLELAAKSPDPAVLPHTEELRKHYTLERSA
Consider B2, for which, in data set [6], the “Hydroxylation activity with L-proline as substrate” value is reported as “virtually no activity against proline”. In addition, in data set [1], the “Relative activity (5-hydroxy-L-pipecolic acid-producing activity, wild type = 100)” value was 314. The “Activity compared with that of the wild-type enzyme” value in data set [1] (in words) was “three or more times higher”.

B3: CaPH: L-proline cis-4-hydroxylase from Catenulispora acidiphila NBRC102108, GenBank WP_012787640, SEQ ID NO: 6 (protein, listed as Catenulispora acidiphila)
chain: MRTQYVAALELDEGRLAKDLETSASFNYSEAYSNYLIGGPWKSAMLYSAGGDAGDGLLTDYDYRQSSDFTDYGRQMPYLQELISTSVDLSRLTFVRLARFAKSVIVPHRDFLELEEIPEDKRSAHRLHIPLATHEECFFSEDNVVYRMRAGELWYFDASRIHSVVSFAEEPRIHLIFDFADRPGAGSLVTVPGEPEGAGVPAASAVDRPQLSDAERAALARLADVLTMDTFSEIFSVLVKKHFRRDGGEHFVWDTLTALARACPDPAVLPHTQELRRYFTLERPSGSGQA
Consider B3, for which the “Activity, Substrate: L-pipecolic acid (cell spanning Km to kcat/Km)” value in data set [7] is “(No activity )”. The “hydroxy-L-proline detected” value in data set [2] is “much amount of hydroxy-L-proline was detected”. In addition, in data set [3], the “Relative activity, Substrate: L-proline (hydroxy-L-proline-producing activity, 100 = hydroxy-L-pipecolic acid-producing activity)” value came out at 583% and the “hydroxy-L-proline detected” value was “much amount of hydroxy-L-proline was detected”. The “Relative activity, Substrate: L-pipecolic acid” value in data set [4] stood at 100%. Besides, in data set [5] (in words), the “Accumulation of (4S)-hydroxy-L-proline” value was “no accumulation of (4S)-hydroxy-L-proline is confirmed”. Moreover, in data set [5], the “Accumulation amount of (4S)-hydroxy-L-proline” value is listed as 0 mmol/L, the “Accumulation amount of (5S)-Hydroxy-L-pipecolic acid” value stood at 0.8 mmol/L and the “Accumulation amount of L-pipecolic acid” value is listed as 18.8 mmol/L.
